# In PMC9570212, “PAUF Induces Migration of Human Pancreatic Cancer Cells Exclusively via the TLR4/MyD88/NF-κB Signaling Pathway” (International Journal of Molecular Sciences, 2022):
# B1: recombinant pancreatic adenocarcinoma up-regulated factor (PAUF) (ligand, UniProt Q96DA0 17-172, looked up)
# chain: GKMYGPGGGKYFSTTEDYDHEITGLRVSVGLLLVKSVQVKLGDSWDVKLGALGGNTQEVTLQPGEYITKVFVAFQAFLRGMVMYTSKDRYFYFGKLDGQISSAYPSQEGQVLVGIYGQYQLLGIKSIGFEWNYPLEEPTTEPPVNLTYSANSPVGR
# Target: human TLR4 overexpressed in Panc-1 cells (Panc-1_TLR4^OE) (human, UniProt O00206 24-839)
# Assay: cell-based or functional assay
# human TLR4 overexpressed in Panc-1 cells (Panc-1_TLR4^OE), sequence (O00206 24-839): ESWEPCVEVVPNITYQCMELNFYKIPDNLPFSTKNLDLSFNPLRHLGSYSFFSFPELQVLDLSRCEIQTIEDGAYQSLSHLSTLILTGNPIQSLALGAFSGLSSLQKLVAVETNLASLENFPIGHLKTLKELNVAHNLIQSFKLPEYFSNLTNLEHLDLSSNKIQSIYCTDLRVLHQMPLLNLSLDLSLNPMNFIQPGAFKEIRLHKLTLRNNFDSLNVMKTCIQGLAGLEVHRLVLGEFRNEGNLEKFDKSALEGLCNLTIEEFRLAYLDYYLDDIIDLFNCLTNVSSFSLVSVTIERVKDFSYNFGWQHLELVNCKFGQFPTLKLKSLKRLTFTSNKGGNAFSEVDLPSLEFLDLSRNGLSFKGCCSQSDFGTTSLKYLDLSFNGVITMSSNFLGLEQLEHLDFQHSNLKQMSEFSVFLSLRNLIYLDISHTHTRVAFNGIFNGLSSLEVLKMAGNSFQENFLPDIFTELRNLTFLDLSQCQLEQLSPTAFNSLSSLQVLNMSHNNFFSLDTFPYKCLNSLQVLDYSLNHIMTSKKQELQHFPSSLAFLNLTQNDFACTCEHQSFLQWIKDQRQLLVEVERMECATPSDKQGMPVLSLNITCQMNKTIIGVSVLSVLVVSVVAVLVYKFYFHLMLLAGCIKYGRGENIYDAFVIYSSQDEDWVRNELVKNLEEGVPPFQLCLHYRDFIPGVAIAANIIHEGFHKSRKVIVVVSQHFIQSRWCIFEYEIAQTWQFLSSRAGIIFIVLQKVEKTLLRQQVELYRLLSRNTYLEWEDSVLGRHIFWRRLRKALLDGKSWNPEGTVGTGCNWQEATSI
binder,measurement,value
B1,"NF-κB dual-luciferase reporter activity in Panc-1 cells transiently overexpressing TLR4 (rPAUF 0.1 µg/mL), relative to Panc-1_trans Ctrl cells; no effect of rPAUF in control cells",4.6 fold
